In patent US20110152345A1, “EBI3, DLX5, NPTX1 AND CDKN3 FOR TARGET GENES OF LUNG CANCER THERAPY AND DIAGNOSIS” (Oncotherapy Science, Inc., priority 2007, published 2011):

T1: eukaryotic translation elongation factor 1 delta (EF-1delta), endogenous (human, UniProt P29692 2-281)
T1 construct: Endogenous 31-kDa protein of LC319 cells
T1 sequence: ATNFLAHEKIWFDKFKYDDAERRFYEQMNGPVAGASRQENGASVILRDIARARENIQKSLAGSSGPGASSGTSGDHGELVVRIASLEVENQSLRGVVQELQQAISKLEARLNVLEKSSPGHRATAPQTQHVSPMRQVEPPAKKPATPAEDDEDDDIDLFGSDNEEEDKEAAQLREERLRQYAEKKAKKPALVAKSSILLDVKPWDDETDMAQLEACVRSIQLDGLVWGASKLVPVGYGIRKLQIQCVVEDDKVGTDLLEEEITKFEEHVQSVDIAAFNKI

T2: neuronal pentraxin receptor (NPTXR), endogenous on SBC-5 lung cancer cells (human, UniProt O95502 1-500)
T2 construct: Endogenous NPTXR of the human SCLC cell line SBC-5
T2 sequence: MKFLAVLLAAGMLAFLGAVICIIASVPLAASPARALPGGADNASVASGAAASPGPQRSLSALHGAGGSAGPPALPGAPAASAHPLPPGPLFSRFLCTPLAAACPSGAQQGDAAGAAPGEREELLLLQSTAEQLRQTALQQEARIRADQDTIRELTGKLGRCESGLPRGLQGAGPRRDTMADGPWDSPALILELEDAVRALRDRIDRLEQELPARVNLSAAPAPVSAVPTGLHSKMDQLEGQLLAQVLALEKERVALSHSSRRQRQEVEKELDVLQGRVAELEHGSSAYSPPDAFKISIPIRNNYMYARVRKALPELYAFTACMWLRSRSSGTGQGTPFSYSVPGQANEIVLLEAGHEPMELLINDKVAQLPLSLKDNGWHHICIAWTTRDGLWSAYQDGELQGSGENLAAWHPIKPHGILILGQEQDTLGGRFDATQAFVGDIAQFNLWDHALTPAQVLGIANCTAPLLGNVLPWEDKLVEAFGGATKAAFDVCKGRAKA

B1: EF-1delta161-281 (FLAG-HA-tagged deletion construct) (other, not shown: small tags and cut ends)
chain: GSDNEEEDKEAAQLREERLRQYAEKKAKKPALVAKSSILLDVKPWDDETDMAQLEACVRSIQLDGLVWGASKLVPVGYGIRKLQIQCVVEDDKVGTDLLEEEITKFEEHVQSVDIAAFNKI
notes: Lacks the N-terminal 160 amino acids of EF-1delta; also called EF-1delta 161-281 construct
B2: cyclin-dependent kinase inhibitor 3 (CDKN3), endogenous in LC319 cells (enzyme)
chain: MKPPSSIQTSEFDSSDEEPIEDEQTPIHISWLSLSRVNCSQFLGLCALPGCKFKDVRRNVQKDTEELKSCGIQDIFVFCTRGELSKYRVPNLLDLYQQCGIITHHHPIADGGTPDIASCCEIMEELTTCLKNYRKTLIHCYGGLGRSCLVAACLLLYLSDTISPEQAIDSLRDLRGSGAIQTIKQYNYLHEFRDKLAAHLSSRDSQSRSVSR
notes: Endogenous protein in extracts of the human lung cancer cell line LC319; also called KAP; KAP1
B3: myc/His-tagged NPTX1 (pcDNA3.1-NPTX1-myc/His) (ligand)
chain: QDFGPTRFICTSVPVDADMCAASVAAGGAEELRSSVLQLRETVLQQKETILSQKETIRELTAKLGRCESQSTLDPGAGEARAGGGRKQPGSGKNTMGDLSRTPAAETLSQLGQTLQSLKTRLENLEQYSRLNSSSQTNSLKDLLQSKIDELERQVLSRVNTLEEGKGGPRNDTEERVKIETALTSLHQRISELEKGQKDNRPGDKFQLTFPLRTNYMYAKVKKSLPEMYAFTVCMWLKSSATPGVGTPFSYAVPGQANELVLIEWGNNPMEILINDKVAKLPFVINDGKWHHICVTWTTRDGVWEAYQDGTQGGSGENLAPYHPIKPQGVLVLGQEQDTLGGGFDATQAFVGELAHFNIWDRKLTPGEVYNLATCSTKALSGNVIAWAESHIEIYGGATKWTFEACRQIN
notes: also called c-myc-tagged NPTX1; exogenous NPTX1; not shown: myc-His tag of the pcDNA3.1 myc-His vector

Assays:
[1] = molecular target: B2; experiment: co-immunoprecipitation with monoclonal anti-Flag antibody from LC319 cells
Text: The biological importance of the association of these two proteins and its potential as a therapeutic target for lung cancer was subsequently investigated. To determine the domain in EF-1delta that is required for interaction with CDKN3, each construct of EF-1delta with FLAG-HA-sequence at its N- and C-terminals were transfected into LC319 cells (EF-1delta72-160, EF-1delta161-281, EF-1delta1-160, EF-1delta72-281, and full-length EF-1delta1-281; FIG. 21B).

[2] = molecular target: T1, eukaryotic translation elongation …; experiment: co-immunoprecipitation with anti-CDKN3 monoclonal antibody from LC319 extracts, silver stain, MALDI-TOF-MS
Method: Cell extracts from lung-cancer cell line LC319 were pre-cleared by incubation at 4 degree Centigrade for 1 hour with 100 micro L of protein G-agarose beads in a final volume of 2 ml of immunoprecipitation buffer [0.5% NP-40, 50 mM Tris-HCl, 150 mM NaCl] in the presence of protease inhibitor. After centrifugation at 1000 rpm for 5 min at 4 degree Centigrade, the supernatant was incubated at 4 degree Centigrade with anti-CDKN3 monoclonal antibody or normal mouse IgG, for 2 hours. The beads were then collected by centrifugation at 5000 rpm for 2 min and washed six times with 1 ml of each immunoprecipitation buffer. The washed beads were resuspended in 50 micro L of Laemmli sample buffer and boiled for 5 min, and the proteins were separated by 5-10% SDS PAGE gels (BIO RAD). After electrophoresis, the gels were stained with silver. Protein bands specifically found in extracts immunoprecipitated with anti-CDKN3 monoclonal antibody were excised and served for matrix-assisted laser desorption/ionization-time of flight mass spectrometry (MALDI-TOF-MS) analysis (AXIMA-CFR plus, SHIMADZU BIOTECH).

[3] = system: COS-7 cells; experiment: Autocrine assay: COS-7 cells incubated with recombinant NPTX1 protein, MTT; type: cell-based; details: NPTX1 at final concentration of 0.1 nM to 1 nM, compared with control
Text: FIG. 10. Presents the autocrine cellular growth effect of NPTX1. Part A depicts the inhibition of growth of lung cancer cells by siRNA against NPTX1. The upper panels of Part A depict the expression of NPTX1 in response to si-NPTX1s (si-1, -2) or control siRNAs (LUC or SCR) in A549 and SBC-5 cells, analyzed by RT-PCR analysis. The middle panels of Part A present images of colonies examined by colony-formation assays of the A549 and SBC-5 cells transfected with specific siRNAs for NPTX1 or control plasmids. The bottom panels of Part A present the viability of the A549 or SBC-5 cells evaluated by MTT assay in response to si-NPTX1s, -LUC, or -SCR. All assays were performed three times, and in triplicate wells. Part B presents growth-promoting effect of NPTX1 transiently overexpressed in COS-7 cells. Top panel, Transient expression of NPTX1 in COS-7 cells, detected by Western blot analysis. The bottom panels, Viability of the COS-7 cells evaluated by MTT (left) and colony formation assays (right). C, Left panel, Autocrine/paracrine effect of NPTX1 on the growth of mammalian cells. Cell viability counted by MTT assays (COS-7 cells treated with NPTX1 in final concentrations of 0, 0.1, or 1 nM) (right lanes indicated by PBS). […]

[4] = molecular target: T2, neuronal pentraxin receptor (NPTXR), …; experiment: immunocytochemistry of recipient SBC-5 cells incubated 3 hours with conditioned medium of NPTX1-transfected donor cells
Method: FIG. 14: Presents internalization of NPTX1 after binding with NPTXR Part A, B, Recipient COS-7 cells (A) or SBC-5 cells (B) were incubated with conditioned medium from NPTX1-transfected (+) donor COS-7 cells or SBC-5 cells, respectively. c-myc-tagged NPTX1 was detected 3 hours after treatment of recipient cells with donor's conditioned medium. Green: NPTX1. Nuclei were visualized by DAPI. (a) Cells were stained for extracellular surface staining with anti-myc antibody for detecting NPTX1. (b) Cells were permialized by Triton X-100 and stained for NPTX1 (myc). (c) 3 hours treatment with PBS. […] 1 or 3 hours after treatment of recipient COS-7 cells with conditioned medium from donor NPTX1-transfected (+) COS-7 cells, internalized NPTX1 was detected by western blotting using anti-myc antibodies.
To determine the mechanism involved in the regulation of NPTX1/NPTXR signaling, the present inventors examined whether NPTX1/NPTXR could be internalized when cells were exposed to secreted NPTX1, through confocal microscopy observation of the subcellular distribution of the NPTX1 and NPTXR. […] The present Mentors detected binding of NPTX1 to the surface of these cells by immunocytochemistry (FIGS. 14A and 14B). […] Then, immunocytochemistry was done under membrane-permeabilizing conditions and we detected internalized exogenous NPTX1 (FIGS. 14A and 14B). […]

Molecule: B1
binding result [1]: no binding

Molecule: B2
binding result [2]: binds

Molecule: B3
COS-7 cell growth by MTT assays [3]: enhancement of the cell growth
binding result [4]: binds
